In the supplement of paper PMC10567573:

B1: ZNF8 (parent)
chain: RTHTGEKPYTCSVCGKSFSRTTCL

Variants of: B1
Assay: protein stability index of a GFP-peptide fusion (GPS, HEK-293T) (PSI 1-6); higher = more stable
Details: c terminus: a fixed tail appended
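Also: lentivirally expressed fusions sorted by FACS into six bins by GFP to DsRed ratio, PSI derived from sequencing read proportions per bin multiplied by bin number.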

In order of falling protein stability index:
1. RTHTGEKPYTCSVCGKSFSCTTCL [R20C]  5.54
2. RTHTGEKPYTCSVCGKSFSRCTCL [T21C]  5.19
3. RTHTGEKPYTCSVCGKSHSRTTCL [F18H]  4.78
4. RTHTGEKPYTCSVCGKSFSHTTCL [R20H]  3.75
5. RTHTGEKPYTCSCCGKSFSRTTCL [V13C]  3.54
6. RTHTGEKPYTCSVCGKSFSDTTCL [R20D]  3.46
7. RTHTGEKPYTCSVCGKSCSRTTCL [F18C]  3.45
8. RTHTGEKPYTCSVCGKSLSRTTCL [F18L]  3.4
9. RTHTGEKPYTCSVCGKSFSRDTCL [T21D]  3.37
10. RTHTGEKPYTCSVCGKSESRTTCL [F18E]  3.37
11. RTHTGEKPYTCSVCGKSFSRHTCL [T21H]  3.29
12. RTHTGEKPYTCSVCGKSFSRGTCL [T21G]  3.27
13. RTHTGEKPYTCSVCGKSFSGTTCL [R20G]  3.17
14. RTHTGEKPYTCSVCGKSFSETTCL [R20E]  3.14
15. RTHTGEKPYTCAVCGKSFSRTTCL [S12A]  2.96
16. RTHTGEKPYTCSVCGKSDSRTTCL [F18D]  2.92
17. RTHTGEKPYTCSVCGKSFSYTTCL [R20Y]  2.91
18. RTHTGEKPYTCSVCGKSFSQTTCL [R20Q]  2.87
19. RTHTGEKPYTCSVCGKSGSRTTCL [F18G]  2.84
20. RTHTGEKPYTCSVCGKSFSRLTCL [T21L]  2.83
21. RTHTGEKPYTCSVCGKSFSTTTCL [R20T]  2.77
22. RTHTGEKPYTCSVCGKSFSKTTCL [R20K]  2.76
23. RTHTGEKPYTCSVCGKSFSNTTCL [R20N]  2.76
24. RTHTGEKPYTCSVCGKSFSPTTCL [R20P]  2.75
25. RTHTGEKPYTCSVCGKSSSRTTCL [F18S]  2.73
26. RTHTGEKPYTCEVCGKSFSRTTCL [S12E]  2.72
27. RTHTGEKPYTCPVCGKSFSRTTCL [S12P]  2.7
28. RTHTGEKPYTCSVCGKSFSRATCL [T21A]  2.7
29. RTHTGEKPYTCSVCGKSFSRETCL [T21E]  2.67
30. RTHTGEKPYTCSKCGKSFSRTTCL [V13K]  2.61
31. RTHTGEKPYTCSHCGKSFSRTTCL [V13H]  2.61
32. RTHTGEKPYTCDVCGKSFSRTTCL [S12D]  2.59
33. RTHTGEKPYTCSVCGKSFSRPTCL [T21P]  2.58
34. RTHTGEKPYTCSVCGKQFSRTTCL [S17Q]  2.58
35. RTHTGEKPYTCSSCGKSFSRTTCL [V13S]  2.56
36. RTHTGEKPYTCSVCGKSRSRTTCL [F18R]  2.56
37. RTHTGEKPYTCSVCGKSFSATTCL [R20A]  2.55
38. RTHTGEKPYTCSVCGKSNSRTTCL [F18N]  2.53
39. RTHTGEKPYTCTVCGKSFSRTTCL [S12T]  2.52
40. RTHTGEKPYTCSVCGKSKSRTTCL [F18K]  2.5
41. RTHTGEKPYTCSVCGKSVSRTTCL [F18V]  2.5
42. RTHTGEKPYTCSVCGKSFSRQTCL [T21Q]  2.49
43. RTHTGEKPYTCSFCGKSFSRTTCL [V13F]  2.48
44. RTHTGEKPYTCSVCGKSTSRTTCL [F18T]  2.48
45. RTHTGEKPYTCSECGKSFSRTTCL [V13E]  2.47
46. RTHTGEKPYTCSVCGKSFSWTTCL [R20W]  2.47
47. RTHTGEKPYTCSDCGKSFSRTTCL [V13D]  2.46
48. RTHTGEKPYTCSYCGKSFSRTTCL [V13Y]  2.43
49. RTHTGEKPYTCSVCGKSWSRTTCL [F18W]  2.43
50. RTHTGEKPYTCHVCGKSFSRTTCL [S12H]  2.41
51. RTHTGEKPYTCSVCGKSFSRKTCL [T21K]  2.4
52. RTHTGEKPYTCSVCGKSFSRMTCL [T21M]  2.39
53. RTHTGEKPYTCSVCGKSFSRRTCL [T21R]  2.39
54. RTHTGEKPYTCSVCGKSQSRTTCL [F18Q]  2.39
55. RTHTGEKPYTCMVCGKSFSRTTCL [S12M]  2.34
56. RTHTGEKPYTCQVCGKSFSRTTCL [S12Q]  2.33
57. RTHTGEKPYTCYVCGKSFSRTTCL [S12Y]  2.27
58. RTHTGEKPYTCSACGKSFSRTTCL [V13A]  2.26
59. RTHTGEKPYTCSNCGKSFSRTTCL [V13N]  2.26
60. RTHTGEKPYTCNVCGKSFSRTTCL [S12N]  2.24
61. RTHTGEKPYTCSLCGKSFSRTTCL [V13L]  2.23
62. RTHTGEKPYTCSVCGKSYSRTTCL [F18Y]  2.23
63. RTHTGEKPYTCLVCGKSFSRTTCL [S12L]  2.22
64. RTHTGEKPYTCVVCGKSFSRTTCL [S12V]  2.21
65. RTHTGEKPYTCRVCGKSFSRTTCL [S12R]  2.21
66. RTHTGEKPYTCSVCGKSFSMTTCL [R20M]  2.18
67. RTHTGEKPYTCWVCGKSFSRTTCL [S12W]  2.17
68. RTHTGEKPYTCSVCGKSFSSTTCL [R20S]  2.17
69. RTHTGEKPYTCSVCGKSFSRSTCL [T21S]  2.16
70. RTHTGEKPYTCSVCGKSFSFTTCL [R20F]  2.15
71. RTHTGEKPYTCSVCGKSFSRITCL [T21I]  2.15
72. RTHTGEKPYTCSMCGKSFSRTTCL [V13M]  2.14
73. RTHTGEKPYTCCVCGKSFSRTTCL [S12C]  2.13
74. RTHTGEKPYTCKVCGKSFSRTTCL [S12K]  2.13
75. RTHTGEKPYTCIVCGKSFSRTTCL [S12I]  2.11
76. RTHTGEKPYTCSICGKSFSRTTCL [V13I]  2.09
77. RTHTGEKPYTCFVCGKSFSRTTCL [S12F]  2.05
78. RTHTGEKPYTCGVCGKSFSRTTCL [S12G]  2.02
79. RTHTGEKPYTCSVCGKSFSVTTCL [R20V]  2.02
80. RTHTGEKPYTCSVCGKSFSLTTCL [R20L]  2.01
81. RTHTGEKPYTCSVCGKSPSRTTCL [F18P]  2.01
82. RTHTGEKPYTCSGCGKSFSRTTCL [V13G]  2
83. RTHTGEKPYTCSRCGKSFSRTTCL [V13R]  1.99
84. RTHTGEKPYTCSVCGKSFSRNTCL [T21N]  1.99
85. RTHTGEKPYTCSPCGKSFSRTTCL [V13P]  1.97
86. RTHTGEKPYTCSTCGKSFSRTTCL [V13T]  1.89
87. RTHTGEKPYTCSVCGKSMSRTTCL [F18M]  1.89
88. RTHTGEKPYTYSVCGKSFSRTTCL [C11Y]  1.86
89. RTHTGEKPYTWSVCGKSFSRTTCL [C11W]  1.82
90. RTHTGEKPYTCSVCGKSFSITTCL [R20I]  1.75
91. RTHTGEKPYTCSVCGKSFSRFTCL [T21F]  1.71
92. RTHTGEKPYTCSWCGKSFSRTTCL [V13W]  1.65
93. RTHTGEKPYTCSVCGKSISRTTCL [F18I]  1.54
94. RTHTGEKPYTCSQCGKSFSRTTCL [V13Q]  1.28
